These results are taken from doi:10.1101/2022.06.26.497666 (bioRxiv, 2022).

Data set [1] concerns the molecule itself. The experiment in a line: SEC + other: negative-stain EM.
For data set [2], the target named is T1, NLRP1 (wild-type full-length human NLRP1) (human, UniProt Q9C000-1).
T1 sequence: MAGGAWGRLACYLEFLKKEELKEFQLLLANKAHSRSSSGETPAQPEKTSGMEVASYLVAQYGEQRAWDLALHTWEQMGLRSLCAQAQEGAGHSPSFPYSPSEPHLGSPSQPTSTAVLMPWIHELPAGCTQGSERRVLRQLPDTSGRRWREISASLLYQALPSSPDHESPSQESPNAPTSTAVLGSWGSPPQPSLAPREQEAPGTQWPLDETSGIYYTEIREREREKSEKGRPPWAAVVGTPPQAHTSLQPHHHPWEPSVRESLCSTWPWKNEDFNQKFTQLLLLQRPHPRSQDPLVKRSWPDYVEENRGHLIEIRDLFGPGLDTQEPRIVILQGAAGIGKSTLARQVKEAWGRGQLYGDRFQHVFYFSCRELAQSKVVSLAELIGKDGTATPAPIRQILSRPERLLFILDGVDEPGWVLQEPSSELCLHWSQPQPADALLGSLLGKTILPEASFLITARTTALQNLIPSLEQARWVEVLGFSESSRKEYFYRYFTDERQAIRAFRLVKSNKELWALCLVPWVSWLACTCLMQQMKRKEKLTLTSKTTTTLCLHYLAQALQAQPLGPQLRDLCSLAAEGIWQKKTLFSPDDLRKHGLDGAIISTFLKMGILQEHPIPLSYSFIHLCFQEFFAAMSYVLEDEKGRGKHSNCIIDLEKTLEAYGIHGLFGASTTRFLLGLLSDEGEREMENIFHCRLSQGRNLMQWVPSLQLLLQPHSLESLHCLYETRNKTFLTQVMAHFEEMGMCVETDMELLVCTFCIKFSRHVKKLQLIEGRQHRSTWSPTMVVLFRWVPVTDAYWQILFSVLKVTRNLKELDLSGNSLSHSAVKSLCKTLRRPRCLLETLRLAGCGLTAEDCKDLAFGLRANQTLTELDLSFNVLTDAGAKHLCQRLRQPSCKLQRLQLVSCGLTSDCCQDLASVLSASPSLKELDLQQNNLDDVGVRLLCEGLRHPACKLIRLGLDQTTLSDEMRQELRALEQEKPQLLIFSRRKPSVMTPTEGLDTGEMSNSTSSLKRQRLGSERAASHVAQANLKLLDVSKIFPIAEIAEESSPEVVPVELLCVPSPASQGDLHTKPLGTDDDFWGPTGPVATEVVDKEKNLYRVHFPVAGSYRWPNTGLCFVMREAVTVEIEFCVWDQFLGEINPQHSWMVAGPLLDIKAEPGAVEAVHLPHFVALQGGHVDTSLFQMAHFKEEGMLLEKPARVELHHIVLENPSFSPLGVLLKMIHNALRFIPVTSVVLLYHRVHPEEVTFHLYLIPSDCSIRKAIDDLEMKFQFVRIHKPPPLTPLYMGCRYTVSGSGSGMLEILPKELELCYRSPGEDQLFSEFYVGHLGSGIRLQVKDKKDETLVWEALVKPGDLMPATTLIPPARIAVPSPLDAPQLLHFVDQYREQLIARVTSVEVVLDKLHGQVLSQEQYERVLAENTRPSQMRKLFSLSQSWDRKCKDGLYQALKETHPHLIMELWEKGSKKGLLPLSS
Description: co-IP.

B1: MBP-NLRP1 NACHT-LRR F787_R843del mutant (domain or fragment)
chain: GRPPWAAVVGTPPQAHTSLQPHHHPWEPSVRESLCSTWPWKNEDFNQKFTQLLLLQRPHPRSQDPLVKRSWPDYVEENRGHLIEIRDLFGPGLDTQEPRIVILQGAAGIGKSTLARQVKEAWGRGQLYGDRFQHVFYFSCRELAQSKVVSLAELIGKDGTATPAPIRQILSRPERLLFILDGVDEPGWVLQEPSSELCLHWSQPQPADALLGSLLGKTILPEASFLITARTTALQNLIPSLEQARWVEVLGFSESSRKEYFYRYFTDERQAIRAFRLVKSNKELWALCLVPWVSWLACTCLMQQMKRKEKLTLTSKTTTTLCLHYLAQALQAQPLGPQLRDLCSLAAEGIWQKKTLFSPDDLRKHGLDGAIISTFLKMGILQEHPIPLSYSFIHLCFQEFFAAMSYVLEDEKGRGKHSNCIIDLEKTLEAYGIHGLFGASTTRFLLGLLSDEGEREMENIFHCRLSQGRNLMQWVPSLQLLLQPHSLESLHCLYETRNKTFLTQVMAHFEEMGMCVETDMELLVCTFCIKFSRHVKKLQLIEGRQHRSTWSPTMVVLLAGCGLTAEDCKDLAFGLRANQTLTELDLSFNVLTDAGAKHLCQRLRQPSCKLQRLQLVSCGLTSDCCQDLASVLSASPSLKELDLQQNNLDDVGVRLLCEGLRHPACKLIRLGLDQTTLSDEMRQELRALEQEKPQLLIFSRRKPSVMTP
Take B1: the binding result in data set [1] is “binds”.

B2: MBP-NLRP1 NACHT-LRR R726W mutant (domain or fragment)
chain: GRPPWAAVVGTPPQAHTSLQPHHHPWEPSVRESLCSTWPWKNEDFNQKFTQLLLLQRPHPRSQDPLVKRSWPDYVEENRGHLIEIRDLFGPGLDTQEPRIVILQGAAGIGKSTLARQVKEAWGRGQLYGDRFQHVFYFSCRELAQSKVVSLAELIGKDGTATPAPIRQILSRPERLLFILDGVDEPGWVLQEPSSELCLHWSQPQPADALLGSLLGKTILPEASFLITARTTALQNLIPSLEQARWVEVLGFSESSRKEYFYRYFTDERQAIRAFRLVKSNKELWALCLVPWVSWLACTCLMQQMKRKEKLTLTSKTTTTLCLHYLAQALQAQPLGPQLRDLCSLAAEGIWQKKTLFSPDDLRKHGLDGAIISTFLKMGILQEHPIPLSYSFIHLCFQEFFAAMSYVLEDEKGRGKHSNCIIDLEKTLEAYGIHGLFGASTTRFLLGLLSDEGEREMENIFHCRLSQGRNLMQWVPSLQLLLQPHSLESLHCLYETWNKTFLTQVMAHFEEMGMCVETDMELLVCTFCIKFSRHVKKLQLIEGRQHRSTWSPTMVVLFRWVPVTDAYWQILFSVLKVTRNLKELDLSGNSLSHSAVKSLCKTLRRPRCLLETLRLAGCGLTAEDCKDLAFGLRANQTLTELDLSFNVLTDAGAKHLCQRLRQPSCKLQRLQLVSCGLTSDCCQDLASVLSASPSLKELDLQQNNLDDVGVRLLCEGLRHPACKLIRLGLDQTTLSDEMRQELRALEQEKPQLLIFSRRKPSVMTP
As to B2, the binding result in data set [1] was “binds”.

B3: CARD8-T60 isoform (full-length) (natural protein)
chain: MEKKECPEKSSSSEEELPRRDSGSSRNIDASKLIRLQGSRKLLVDNSIRELQYTKTGIFFQAEACVTNDTVYRELPCVSETLCDISHFFQEDDETEAEPLLFRAVPECQLSGGDIPSVSEEQESSEGQDSGDICSEENQIVSSYASKVCFEIEEDYKNRQFLGPEGNVDVELIDKSTNRYSVWFPTAGWYLWSATGLGFLVRDEVTVTIAFGSWSQHLALDLQHHEQWLVGGPLFDVTAEPEEAVAEIHLPHFISLQAGEVDVSWFLVAHFKNEGMVLEHPARVEPFYAVLESPSFSLMGILLRIASGTRLSIPITSNTLIYYHPHPEDIKFHLYLVPSDALLTKAIDDEEDRFHGVRLQTSPPMEPLNFGSSYIVSNSANLKVMPKELKLSYRSPGEIQHFSKFYAGQMKEPIQLEITEKRHGTLVWDTEVKPVDLQLVAASAPPPFSGAAFVKENHRQLQARMGDLKGVLDDLQDNEVLTENEKELVEQEKTRQSKNEALLSMVEKKGDLALDVLFRSISERDPYLVSYLRQQNL
For the molecule B3, in data set [2], the binding result is “binds”.
